Here are results for eleven molecules from patent US20260234738A1 (Regeneron, published 2026).

For assay [1], the target named is SARS-COV-2 spike protein receptor binding domain (amino acids Arg319 to Phe541) expressed with the F (SARS-CoV-2).
Assay [2] concerns the target SARS-CoV-2 Spike Protein (RBD) (R319-F541).mFc (SARS-CoV-2). In words: Luminex beads, supernatant.
Assay [3] addresses Bt-SARS-CoV-2 Spike Protein (RBD) (R319-F541).mFc (SARS-CoV-2). The assay can be described thus: Luminex beads, supernatant.
The target of assay [4] is SARS-CoV-2 Spike Protein (RBD) (R319-F541).hFc (SARS-CoV-2). In words: Luminex beads, supernatant.
Another assay deals with SARS-COV-2 RBD-hFc (SARS-CoV-2).

B1: mAb11004 (antibody, V domains shown)
VH: QVQLVESGGGVVQPGRSLRLSCVASGFTFSIYGMDWVRQAPGKGLEWVAVISYDGSNKYYADSVKGRFTISRDNSKNTLYLQMNSLRPEDTAVYYCAKDREAAADAFDIWGQGTMVTVSS
VL: DIQMTQSPSSVSASVGDRVTITCRASQGISSWLAWYQQKPGKAPKLLIYAASSLHSGVPSRFSGSGSGTDFTLTISSLQPEDFATYYCQQANSFRLTFGGGTKVEIK
In assay [1], B1 gave a Kd of 0.191 nM, a koff of 6.63e-05 s⁻¹, a kon of 346000 M⁻¹ s⁻¹ and a t½ of 2.9 h.

B2: mAb10954 (antibody, V domains shown)
VH: EVQLVESGGGLVQPGGSLRLSCAASGITVSSNYMSWVRQAPGKGLEWVSLIYSGGSTYYADSVKGRFTISRDNSKNTLYLQMNSLRVEDTAVYYCARDHGMAAAGYNYWGQGTLVTVSS
VL: DIQMTQSPSSLSASVGDRVTITCQASQDINKYLNWYQQKPGKAPKLLIYDASNLETGVPSRFSGSGSGTDFTFTINSLQPEDFATYFCQQYDNLPPAFGQGTKVEIKR
As to B2, the figures for the MFI in assay [2], in assay [3] and in assay [4] were 31300 MFI, 18400 MFI and 31800 MFI, respectively.

B3: mAb10998 (antibody, V domains shown)
VH: EVQLVESGGGLVHPGGSLRLSCAASGLTVSSNYMSWVRQAPGKGLEWVSVIYSGGSTYYADSVKGRFTISRHNSKNTLFLQMNSLRAEDTAVYYCARDRPITGTTLDVWGQGTTVTVSS
VL: DIQMTQSPSSLFASVGDRVTITCRASQSISSYLNWYQQKPGKAPKLLIYAASSLQSGVPSRFSGSGSGTDFTLTISSLQPEDFAFYYCQQTYSTPPITFGQGTRLEIK
B3: in assay [1], the Kd is 1.58 nM, the koff came out at 0.000521 s⁻¹, the kon was determined as 330000 M⁻¹ s⁻¹ and the t½ came out at 0.37 h.

B4: mAb10955 (antibody, V domains shown)
VH: EVQLVESGGGLVQPGGSLRVSCAASGFTVSRNYMSWVRQAPGKGLEWVSVIYSGGSTFYADSVKGRFTISRDNSKNTLYLQMNSLRAEDTAIYYCARYIPRFDPWGQGTLVTVSS
VL: DIQMTQSPSSLSASVGDRVTITCQASQDISNYLNWFQQKPGRAPKLLIYDASNLETGVPSRFSGSGSGTDFTFTISSLQPEDIATYYCQQYDNLPITFGQGTRLEIKR
As for B4, the MFI in assay [2] amounted to 30800 MFI; in assay [3], 16800 MFI; in assay [4], 31200 MFI.

B5: mAb10956 (antibody, V domains shown)
VH: EVQLVESGGGLVQPGGSLRLSCAASGLTVSSNYMSWVRQAPGKGLEWVSVIYSGGSTFYADSVKGRFTISRDNSKNTLYLQMNSLRAEDTAVYYCARDLIKYGMDVWGQGTTVTVSS
VL: not shown
Consider B5, for which the MFI was found to be 28300 MFI in assay [2], 12900 MFI in assay [3] and 30200 MFI in assay [4].

B6: mAb10957 (antibody, V domains shown)
VH: EVQLVESGGGLVQPGGSLRLSCAASGVTVSSNYMSWVRQAPGKGLEWVSVIYSGGSTFYADSVKGRFTISRDNSKNTLFLQMNSLRIEDTAVYYCARDLGPYGMDVWGQGTTVTVSS
VL: DIQLTQSPSFLSASVGDRVTITCRASQGISSYLAWYQQKPGKAPKLLIYAASTLQSGVPSRFSGSGSGTQFILTISSLQPEDFATYYCQQLNSYPGFTFGPGTKVDIKR
Consider B6, for which the MFI turned out to be 18700 MFI in assay [2], 10600 MFI in assay [3] and 22600 MFI in assay [4].

B7: mAb11006 (antibody, V domains shown)
VH: EVQLVESGGGLVQPGGSLRLSCAASGFIVSRNYMSWVRQAPGKGLEWVSVIYSGGSTFYADSVKGRFTISRHNSKNTLYLQMNSLKAEDTAVYYCARELRGYFDYWGQGTLVTVSS
VL: DIQLTQSPSFLSASVGDRVTITCWASQGISSYLAWYQQKPGKAPKLLIYAASTLQSGVPSRFSGSGSGTEFTLTISSLQPEDFATYYCQLLNSYPYTFGQGTKLEIK
On to B7, for which, in assay [1], the equilibrium dissociation constant (Kd) was no more than 0.0532 nM and the t½ was no less than 19.2 h.

B8: mAb11008 (antibody, V domains shown)
VH: EVQLVESGGGLVQPGGSLRLSCAASGFTVSSNYMTWVRQAPGKGLEWVSVIYSGGSTFYADSVKGRFTISRHNSENTLYLQMNSLRAEDTAVYYCARDLAAAGTDYWGQGALVTVSS
VL: DIQLTQSPSFLSASVGDRVTITCWASQGISSYLAWYQQKPGKAPKLLIYAASTLQSGVPSRFSGSGSGTEFTLTISSLQPDDFATYYCQHLNSYLYTFGQGTKLEIK
In assay [1], B8 displayed a Kd of 0.715 nM, a koff of 0.000115 s⁻¹, a kon of 161000 M⁻¹ s⁻¹ and a t½ of 1.67 h.

B9: mAb11002 (antibody, V domains shown)
VH: EVQLVESGGGLVQPGGSLRLSCAASGFTVSSNYMSWVRQAPGKGLEWVSVIYSGGSTFYADSVKGRFTISRHNSKNTLYLQMNSLRAEDTAVYYCAREGYGMDVWGQGTTVTVSS
VL: not shown
In assay [1], B9 came in with a Kd of 16.7 nM and a t½ of 0.0433 h.

B10: mAb11010 (antibody, V domains shown)
VH: QVQLVESGGGVVQPGRSLRLSCAASGFTFSSYGMHWVRQAPGKGLEWVAVISYDGSYKYYADSVKGRFTISRDNSKNTLYLQMNSLRAEDTAVYYCAIDGGTVTTIFDYWGQGTLVTVSS
VL: not shown
In the case of B10, in assay [1], the Kd is no more than 0.0236 nM and the t½ is no less than 19.2 h.

B11: mAb10978 (antibody)
heavy chain: QVQLVESGGGVVQPGRSLRLSCAASGFTFSSYAMHWVRQAPGKGLEWVAVISYDGSNKYYADSVKGRFTISRDNSKNTLYLQMNSLRAEDTAVYYCARDGRTITMVRGVIDDAFDIWGQGTMVTVSSASTKGPSVFPLAPCSRSTSESTAALGCLVKDYFPEPVTVSWNSGALTSGVHTFPAVLQSSGLYSLSSVVTVPSSSLGTKTYTCNVDHKPSNTKVDKRVESKYGPPCPPCPAPGGGGPSVFLFPPKPKDTLMISRTPEVTCVVVDVSQEDPEVQFNWYVDGVEVHNAKTKPREEQFNSTYRVVSVLTVLHQDWLNGKEYKCKVSNKGLPSSIEKTISKAKGQPREPQVYTLPPSQEEMTKNQVSLTCLVKGFYPSDIAVEWESNGQPENNYKTTPPVLDSDGSFFLYSRLTVDKSRWQEGNVFSCSVMHEALHNHYTQKSLSLSLGK
light chain: not shown
For the molecule B11, in the assay with SARS-COV-2 RBD-hFc, the “IC50 (read off the curve)” value was roughly 0.1 nM.
